# Measurements taken from US11497796B2, “Agents directed against a cis RGMa/neogenin interaction or lipid rafts and use of the same in methods of treatment” (UNIVERSITY HEALTH NETWORK, priority 2013, dated 2022).
# Columns and labels:
# [1] = system: retinal axons (axonal pathfinding); test: In ovo electroporation and DiI tracing of axonal paths; type: in vivo, chick; settings: ectopic expression in the eye at E2
# Protocol: Eggs (White Leghorn) were incubated at 38° C. in a high humidity chamber. A small amount of viral solution (viral titers of 1×10^8 IU/ml) was mixed with 1/10 volume of 0.25% fast green solution (Molecular Probes) and injected in the tectum at E1.5. Eggs were further incubated until E15, when a small DiI crystal (Molecular Probes) was placed in the temporo-dorsal part of the right eye. At E17, embryos were sacrificed and the tecta fixed in 4% PFA. DiI tracing was viewed under the microscope (Olympus BX61) after cutting the tecta in half. Digital Images of the tecta were taken and processed using Photoshop (Adobe). Alternatively, plasmid constructs were electroporated into the optic vesicle to restrict expression to the eye and tracing performed as above.
# To study the effect of the interaction between 4Ig and N-Raft on axonal paths in vivo, 4Ig, N-Raft, and the control NRGMa^50-99 were ectopically expressed and axonal pathfinding was examined. To ensure that the treatments affected growing axons and not their environment, when electroporation was performed, the application of the electric field was narrowed to the optic vesicle at E2, thereby restricting expression to the eye and retinal axons (FIG. 3G).
# [2] = system: Neogenin-induced apoptosis in chick tecta; test: TUNEL assay after Neogenin electroporation; type: in vivo; settings: injected into tecta after Neogenin electroporation; for number of TUNEL+ cells: without agent 432±23
# Protocol: (A) HEK293 cells that stably express RGMa (FIG. 11) were transfected with empty plasmid (Ctrl) or Neogenin (Neo). Neogenin induced cell death (arrows) when compared to control. (B) Quantification of cell death in Neogenin-transfected cells that were incubated in BSA (Neo+Ctrl), 4Ig (1 μg/ml), N-Raft (1 μg/ml), Noggin (100 nM), or MβCD (10 mM). […] Data were average±SEM (n=3 independent experiments), *p<0.0001. (C) Representative images and (D) Quantification of cell death in chick E5 tecta electroporated with GFP- and a Neogenin-expression plasmid and then injected with N-RGMa50-99 (Ctrl; 1 μg/ml), 4Ig (1 μg/ml), or N-Raft (1 μg/ml) and subjected to TUNEL assay. […] Data were an average±SEM from 3 different tecta/conditions (*p<0.001). Bar, 100 μm. (E) Representative images and (F) Quantification of retinal whole mounts incubated for 4 days with control peptide (1 μg/ml), 4Ig (1 μg/ml), N-Raft (1 μg/ml), or MβCD (10 mM) and dead cells were stained with Propidium Iodide (PI). Images from 9 whole mounts per condition from 3 independent experiments were taken at the same intensities and the fluorescence measured using ImageJ. […] Bar, 500 μm. (G) Fluorescence micrographs of flat-mounted retinas depicting Fluorogold-labeled retinal ganglion cells (RGCs) in injured retinas at 14 days following axotomy. Control retinas (Ctrl) had few surviving RGCs. 4Ig, N-raft or MβCD increased cell survival. Bar, 200 μm. (H) Representations of the retinal areas selected in our analyses. […] Data were average±SEM (n=6 eyes), *p<0.01.
# RGMa was expressed in the developing chick neural tube, and thus, to determine if Neogenin required lipid rafts for its pro-death function in vivo, apoptosis was examined in the neural tubes of chick embryos (E2). Specifically, a GFP-construct was electroporated with plasmids that expressed either Mock or Neogenin and apoptosis was assayed by TUNEL staining.
# spinal cord injured rats = test: Spinal cord injury (clip compression), functional analysis (BBB, motor subscore, ladder-walk); type: in vivo, rat; settings: for functional recovery (BBB score and motor subscore) compared to controls: 4Ig IV or MβCD IP
# Protocol: The spinal cord was injured by clip compression at spinal cord level T8 with a 20 g force. The 4Ig or vehicle was injected intraspinally immediately following SCI. 2 injections (250 ng/μL, 3 μL each) were made 1 mm rostral and 1 mm caudal to the lesion site and adjacent to the midline vein. Immediately following SCI, the 4Ig treated rats also received a 1 mg/kg dose of 4Ig intravenously (i.v.) via the intrajugular vein and subsequent i.v. injections weekly for 2 more weeks. Rats in the MβCD group received intraperitoneal (i.p.) injection of MβCD at 1000 mg/kg/week immediately following SCI and then daily i.p. injections until sacrifice. Control rats received equivalent vehicle volumes as described above.
# To assess local delivery of 4Ig, 19 adult female Wistar rats were injured and injected rostral and caudal to the lesion site with 4Ig or PBS. Immediately after the intraspinal injections, 4Ig or PBS was delivered intrathecally and then continuously for 14 days (0.5 μL/hour) via the catheter and pump system.
# Functional tests were performed before the injury, 1 day, and then weekly for 6 weeks post-SCI. Locomotor function was evaluated using the BBB locomotor rating scale. A score of 0 indicates no hindlimb movement, a score of 21 indicates unimpaired locomotion as observed in Control. Motor subscores were determined to assess toe clearance, predominant paw position and absence of instability. A maximal motor subscore of 7 means normal locomotion.
# Ladder-walk analysis was done to assess fine motor functions. At 1 week post-SCI and weekly thereafter, rats with a BBB score greater than 10 were placed on the horizontal ladder-walk apparatus and 3 test runs were recorded. Recordings were analyzed in slow motion; the number of footfalls per hindlimb was recorded and the average was calculated for each rat per week.
# Pre-operatively, 32 adult female Wistar rats (Charles River, St. Constant, QC, 200-300 g) were acclimatized and trained for baseline behavioral assessment. Rats were divided into 4 groups (n=8/group): 1) MBCD (i.p.); 2) vehicle control (i.p); 3) 4Ig (i.v. and intraspinal); 4) vehicle control (i.v. and intraspinal). Rats were anesthetized by inhalation of 2% isofluorane in combination with a mixture of nitrous oxide and oxygen (1:2, v/v). The spinal cord was exposed by laminectomy and a clip compression injury was made at spinal cord level T8 with a 20 g force. This was a clinically relevant model of SCI reflecting human pathology. n the 4Ig and equivalent control group, 4Ig or vehicle was injected intraspinally immediately following SCI. A total of 2 injections (250 ng/μL, 3 μL each) were made 1 mm rostral and 1 mm caudal to the lesion site and adjacent to the midline vein. Injections were made stereotactically with the aid of an operating microscope using a motorized microinjector at a rate of 1.5 μl/min with a 10 μl Hamilton syringe and a customized 32 G needle. The needle was left in place for an additional 2 min after injection to prevent leakage. The overlying muscle and skin were sutured with 3-0 vicryl sutures (Johnson and Johnson, Peterborough ON, Canada).
# Immediately following SCI, the 4Ig treated rats also received a 1 mg/kg dose of 4Ig i.v. via the intrajugular vein and subsequent i.v. injections weekly for 2 more weeks. Rats in the MβCD group received intraperitoneal injection of MβCD at 1000 mg/kg/week immediately following SCI and then daily i.p. injections until sacrifice. Control rats received equivalent volumes as described above. Bladders were evacuated manually 3 times daily until spontaneous voiding was established, and hematuria or urinary tract infection was treated with Clavomax (62.5 mg PO BID for 7 days). The rats were housed singly in a temperature-controlled room at 26° C. with a 12 hour light/dark cycle. Water and food were provided ad libitum. […]
# injured spinal cord = test: Spinal cord injury, immunostaining and quantitative analysis (NeuN, GFAP, lesion volume); type: in vivo, rat; settings: for lesion volume compared to controls: rat, in vivo; for increase in number of peri-lesional neurons (NeuN) compared to controls: systemic application for 6 weeks
Molecule,electroporations that caused aberrant axonal paths [1] [%],reduction of the number of TUNEL+ cells [2],number of TUNEL+ cells [2],functional recovery (BBB score and motor subscore) compared to controls (spinal cord injured rats; as early as 2-3 weeks post-SCI),"improvement of locomotor recovery vs. control (spinal cord injured rats; older animals (greater than 7 month), post-SCI)",lesion volume compared to controls (injured spinal cord),increase in number of peri-lesional neurons (NeuN) compared to controls (injured spinal cord),"hindlimb coordination (footfalls), local application (spinal cord injured rats; intrathecal)","functional recovery (BBB score), local application (spinal cord injured rats; intrathecal, Alzet mini-osmotic pumps, as early as 2-3 weeks post-SCI)","hindlimb coordination, ladder-walk test (footfalls) (spinal cord injured rats; systemic treatment)",increase of NeuN positive cells in cross-sections of the spinal cord (injured spinal cord; intrathecal application over 6 weeks)
N-Raft: peptide spanning amino acids 28-73 of RGMa (SEQ ID NO:2) (SPCKILKCNSEFWAATSGSHHLGAEETPEFCTALRAYAHCTRRTAR; N-Raft - amino acids 28-73 of RGMa),85.7,about 4 fold,103±8,–,–,–,–,–,–,–,–
"methyl-β-cyclodextrin [MβCD, reference compound]",–,–,–,significant functional recovery,+6.8 BBB points,did not significantly vary,about 2 fold,–,–,–,–
"4Ig: four immunoglobulin-like domains of Neogenin, amino acids 1 to 383 of Accession No. AAC59662 (SEQ ID NO:1) (protein, listed as Gallus gallus, Neogenin - Accession No. AAC59662) RSGPRSPLTGSVVRTFTPFYFLVEPMDILSVRGASVIMNCSSYCETPPKIEWKKDGTLLNLVSDDRRQLLPDGSLLINSVVHSKHNKPDEGYYQCVATVESLGSIVSRTAKLTVAGLPRFTSQPELSSVYKGNSAILNCEVNVDLAPFVRWEQDRQPLSLDDRVFKLPSGALLIGNATDTDGGFYRCVIESGGTPKYSEEAELKILPDPEEPQSLVFVRQPSSLTKVTGQNAVFPCVAGGFPTPYVRWTKNGEELITEDSERFALRAGGSLLISDVTEEDVGTYTCIADNENETIEAQAELAVQVPPEFLKRPANIYAHESMDIVFECEVTGKPTPTVKWVKNGDVVIPSDYFKIVKEHNLQVLGLVKSDEGFYQCIAENDVGNAQAGAQLIILDLDVAIPTLPPTSLTSATNDHLAPATTGPLPTAPRDVVATLVSTRFIRLTWRTPVSDPQGDNLTYSIFYTKEGINRERVENTSRPGETQVMIQNLMPETVYVFRVVAQNKHGHGESSAPLKVATQPEVQLPGPAPNIRAYAGSPTSVTVTWETPLSGNGEIQNYKLYYMEKGQDSEQDVDVAGLSYTITGLKKYTEYSFRVVAYNKHGPGVSTQDVVVRTLSDVPSAAPQNLTLEARNSKSIMLHWQPPPAGTHSGQITGYKIRYRKVSRKSDVTESVGGTQLFQLIEGLERGTEYNFRIAAMTVNGTGPATDWVSAETFESDLDESRVPEVPSSLHVRPLVTSIVVSWTPPENQNIVVRGYAIGYGIGSPHAQTIKVDYKQRYYTIENLDPSSHYVITLKAFNNVGEGIPLYESAVTRPHSDTSEVDLFVINAPYTPVPDPSPMMPPVGVQASILSHDTIRITWADNSLPKNQKITDARYYTVRWKTNIPANTKYKTANATTLSYLVTGLKPNTLYEFSVMVTKGRRSSTWSMTAHGTTFELVPTSPPKDVTVVSKEGKPRTIIVNWQPPSEANGKITGYIIYYSTDVNAEIHDWVIEPVVGNRLTHQIQELTLDTPYYFKIQARNSKGMGPMSEAVQFRTPKAESSDKMPNDQASGSAGKGSRPVDVGPDYKPPLSGSNSPHGSPTSPLDSNMLLVIIVSVGVITIVIVVIVAVFCTRRTTSHQKKKRAACKSVNGSHKYKGNSKDVKPPDLWIHHERLELKPIDKSPDPNPIMTDTPIPRNSQDITPVDNSMDSNIHQRRNSYRGHESEDSMSTLAGRRGMRPKMMMPFDSQPPQPVISAHPIHSLDNPHHHFHSGSLASPTRSYLHHQVSPWPVGTSMSHSDRANSTESVRNTPSSDTMPASSSQPCADHQDPDSSSGAYLGSAQEEDAAQSLPTAHVRPSHPLKSFAVPAVPAAGSAYDPTLPSTPLLTQQAPSHPVHSVKTASIGTLGRTRPPMPVVVPSAPDVQETTRMLEDSESSYEPDELTKEMAHLEGLMKDLNAITTA",100,about 18 fold,23±4,significant functional recovery,–,did not significantly vary,about 2 fold,fewer footfalls,significant functional recovery,fewer footfalls,about 2 fold
